Assay results taken from patent US20230212549A1 (3B PHARMACEUTICALS, published 2023).
Numbered stars: 1 amine (or outer) side, 2 acyl side, 3 side chain; on linkers, the order of the positions; unused ones are H or OH. Bridge positions count the residues as written; N and C are the ends. Square brackets hold non-standard residues; d marks the D form. Primed or numbered codes have the meaning given here. * marks the point of attachment. Ttds″ = 1,13-diamino-4,7,10-trioxatridecan-succinamic acid spacer, O=C(CCC(=O)[*:2])NCCCOCCOCCOCCCN[*:1]; DOTA = O=C(O)CN1CCN(CC(=O)O)CCN(CC(=O)*)CCN(CC(=O)O)CC1; mXylylene = c1cc(C[*:1])cc(C[*:2])c1; 3Amb = NCc1cccc(C(=O)O)c1; 4Amb = NCc1ccc(C(=O)O)cc1; Hexanoyl = CCCCCC(=O)*; NH(CH2)5NH2 = NCCCCCN*; GABA = NCCCC(=O)O

B1: Ac-[Cys(3MeBn)-Pro-Pro-Thr-Glu-Phe-Cys]-Asp-His-Phe-Arg-Asp-NH2 (peptide)
peptide: Ac-CPPTEFCDHFRD-NH2
modifications: linker 1-7 via mXylylene
SMILES: CC(=O)N[C@H]1CSCc2cccc(c2)CSC[C@@H](C(=O)N[C@@H](CC(=O)O)C(=O)N[C@@H](Cc2c[nH]cn2)C(=O)N[C@@H](Cc2ccccc2)C(=O)N[C@@H](CCCNC(=N)N)C(=O)N[C@@H](CC(=O)O)C(N)=O)NC(=O)[C@H](Cc2ccccc2)NC(=O)[C@H](CCC(=O)O)NC(=O)[C@H]([C@@H](C)O)NC(=O)[C@@H]2CCCN2C(=O)[C@@H]2CCCN2C1=O
notes: also called 3BP-3202
B2: Hex-[Cys(tMeBn(InDOTA-AET))-Pro-Pro-Thr-Gln-Phe-AET] (peptide)
peptide: CPPTQFX
modifications: not fully specified; N-term Hex; X7 = AET; Cys1/AET7 thioether-cyclised via tMeBn(InDOTA-AET)
notes: also called 3BP-3713
B3: Hex-[Cys(3MeBn)-Pro-Pro-Thr-Gln-Phe-Cys]-Asp-Ape-NH-DOTA′ (peptide)
peptide: Hexanoyl-CPPTQFCD-{NH(CH2)5NH2-DOTA′}
modifications: linker 1-7 via mXylylene
notes: also called 3BP-3403
B4: Hex-[Cys(tMeBn(DOTA-AET))-Pro-Pro-Thr-Gln-Phe-Cys]-Ser-OH (peptide)
peptide: Hexanoyl-CPPTQFCS-OH
modifications: linker 1-7 via tMeBn(DOTA-AET)
notes: also called 3BP-3658
B5: Hex-[Cys(tMeBn(DOTA-AET))-Pro-Pro-Thr-Gln-Phe-Cys]-Gly-OH (peptide)
peptide: Hexanoyl-CPPTQFCG-OH
modifications: linker 1-7 via tMeBn(DOTA-AET)
notes: also called 3BP-3656
B6: Hex-[Cys(3MeBn)-Pro-Pro-Thr-Glu-Phe-Cys]-Asp-NH2 (peptide)
peptide: Hexanoyl-CPPTEFCD-NH2
modifications: linker 1-7 via mXylylene
SMILES: CCCCCC(=O)N[C@H]1CSCc2cccc(c2)CSC[C@@H](C(=O)N[C@@H](CC(=O)O)C(N)=O)NC(=O)[C@H](Cc2ccccc2)NC(=O)[C@H](CCC(=O)O)NC(=O)[C@H]([C@@H](C)O)NC(=O)[C@@H]2CCCN2C(=O)[C@@H]2CCCN2C1=O
notes: also called 3BP-3288
B7: Hex-[Cys(tMeBn(GaDOTA-PP))-Pro-Pro-Thr-Gln-Phe-Cys]-Asp-NH2 (peptide)
peptide: Hexanoyl-CPPTQFCD-NH2
modifications: linker 1-7 via tMeBn(GaDOTA-PP); also: Ga complex (GaDOTA)
notes: also called 3BP-3592
B8: Hex-[Cys(3MeBn)-Pro-Pro-Thr-Glu-Phe-Cys]-Asp-Gab-Arg-NH2 (peptide)
peptide: Hexanoyl-CPPTEFCD[GABA]R-NH2
modifications: linker 1-7 via mXylylene
SMILES: CCCCCC(=O)N[C@H]1CSCc2cccc(c2)CSC[C@@H](C(=O)N[C@@H](CC(=O)O)C(=O)NCCCC(=O)N[C@@H](CCCNC(=N)N)C(N)=O)NC(=O)[C@H](Cc2ccccc2)NC(=O)[C@H](CCC(=O)O)NC(=O)[C@H]([C@@H](C)O)NC(=O)[C@@H]2CCCN2C(=O)[C@@H]2CCCN2C1=O
notes: also called 3BP-3300
B9: Hex-[Cys(3MeBn)-Pro-Pro-Thr-Glu-Phe-Cys]-Asp-Ttds-Lys(DOTA)-NH2 (peptide)
peptide: Hexanoyl-CPPTEFCD[Ttds″]K(DOTA)-NH2
modifications: linker 1-7 via mXylylene
SMILES: CCCCCC(=O)N[C@H]1CSCc2cccc(c2)CSC[C@@H](C(=O)N[C@@H](CC(=O)O)C(=O)NCCCOCCOCCOCCCNC(=O)CCC(=O)N[C@@H](CCCCNC(=O)CN2CCN(CC(=O)O)CCN(CC(=O)O)CCN(CC(=O)O)CC2)C(N)=O)NC(=O)[C@H](Cc2ccccc2)NC(=O)[C@H](CCC(=O)O)NC(=O)[C@H]([C@@H](C)O)NC(=O)[C@@H]2CCCN2C(=O)[C@@H]2CCCN2C1=O
notes: also called 3BP-3396
B10: Hex-[Cys(3MeBn)-Pro-Pro-Thr-Gln-Phe-Cys]-Asp-Ttds-Lys(DOTA)-NH2 (peptide)
peptide: Hexanoyl-CPPTQFCD[Ttds″]K(DOTA)-NH2
modifications: linker 1-7 via mXylylene
SMILES: CCCCCC(=O)N[C@H]1CSCc2cccc(c2)CSC[C@@H](C(=O)N[C@@H](CC(=O)O)C(=O)NCCCOCCOCCOCCCNC(=O)CCC(=O)N[C@@H](CCCCNC(=O)CN2CCN(CC(=O)O)CCN(CC(=O)O)CCN(CC(=O)O)CC2)C(N)=O)NC(=O)[C@H](Cc2ccccc2)NC(=O)[C@H](CCC(N)=O)NC(=O)[C@H]([C@@H](C)O)NC(=O)[C@@H]2CCCN2C(=O)[C@@H]2CCCN2C1=O
notes: also called 3BP-3395
B11: Ac-Met-[Cys(3MeBn)-Pro-Pro-Thr-Glu-Phe-Cys]-Asp-His-Phe-Arg-Asp-NH2 (peptide)
peptide: Ac-MCPPTEFCDHFRD-NH2
modifications: linker 2-8 via mXylylene
SMILES: CSCC[C@H](NC(C)=O)C(=O)N[C@H]1CSCc2cccc(c2)CSC[C@@H](C(=O)N[C@@H](CC(=O)O)C(=O)N[C@@H](Cc2c[nH]cn2)C(=O)N[C@@H](Cc2ccccc2)C(=O)N[C@@H](CCCNC(=N)N)C(=O)N[C@@H](CC(=O)O)C(N)=O)NC(=O)[C@H](Cc2ccccc2)NC(=O)[C@H](CCC(=O)O)NC(=O)[C@H]([C@@H](C)O)NC(=O)[C@@H]2CCCN2C(=O)[C@@H]2CCCN2C1=O
notes: also called 3BP-2975
B12: Hex-[Cys(3MeBn)-Pro-Pro-Thr-Glu-Phe-Cys]-Asp-Mamb-Arg-NH2 (peptide)
peptide: Hexanoyl-CPPTEFCD[3Amb]R-NH2
modifications: linker 1-7 via mXylylene
SMILES: CCCCCC(=O)N[C@H]1CSCc2cccc(c2)CSC[C@@H](C(=O)N[C@@H](CC(=O)O)C(=O)NCc2cccc(C(=O)N[C@@H](CCCNC(=N)N)C(N)=O)c2)NC(=O)[C@H](Cc2ccccc2)NC(=O)[C@H](CCC(=O)O)NC(=O)[C@H]([C@@H](C)O)NC(=O)[C@@H]2CCCN2C(=O)[C@@H]2CCCN2C1=O
notes: also called 3BP-3324
B13: Hex-[Cys(3MeBn)-Pro-Pro-Thr-Glu-Phe-Cys]-Asp-Pamb-Arg-NH2 (peptide)
peptide: Hexanoyl-CPPTEFCD[4Amb]R-NH2
modifications: linker 1-7 via mXylylene
SMILES: CCCCCC(=O)N[C@H]1CSCc2cccc(c2)CSC[C@@H](C(=O)N[C@@H](CC(=O)O)C(=O)NCc2ccc(C(=O)N[C@@H](CCCNC(=N)N)C(N)=O)cc2)NC(=O)[C@H](Cc2ccccc2)NC(=O)[C@H](CCC(=O)O)NC(=O)[C@H]([C@@H](C)O)NC(=O)[C@@H]2CCCN2C(=O)[C@@H]2CCCN2C1=O
notes: also called 3BP-3301

target: T1, Recombinant human FAP (R&D systems, #3715-SE) (human, UniProt Q12884 26-760); assay: SPR (Biacore T200), FAP captured on anti-FAP antibody, single cycle kinetics
T1 construct: bought; in SPR captured on immobilized anti-FAP antibody MAB3715; also called rhFAP; human recombinant FAP
T1 sequence (Q12884 26-760 limits assumed): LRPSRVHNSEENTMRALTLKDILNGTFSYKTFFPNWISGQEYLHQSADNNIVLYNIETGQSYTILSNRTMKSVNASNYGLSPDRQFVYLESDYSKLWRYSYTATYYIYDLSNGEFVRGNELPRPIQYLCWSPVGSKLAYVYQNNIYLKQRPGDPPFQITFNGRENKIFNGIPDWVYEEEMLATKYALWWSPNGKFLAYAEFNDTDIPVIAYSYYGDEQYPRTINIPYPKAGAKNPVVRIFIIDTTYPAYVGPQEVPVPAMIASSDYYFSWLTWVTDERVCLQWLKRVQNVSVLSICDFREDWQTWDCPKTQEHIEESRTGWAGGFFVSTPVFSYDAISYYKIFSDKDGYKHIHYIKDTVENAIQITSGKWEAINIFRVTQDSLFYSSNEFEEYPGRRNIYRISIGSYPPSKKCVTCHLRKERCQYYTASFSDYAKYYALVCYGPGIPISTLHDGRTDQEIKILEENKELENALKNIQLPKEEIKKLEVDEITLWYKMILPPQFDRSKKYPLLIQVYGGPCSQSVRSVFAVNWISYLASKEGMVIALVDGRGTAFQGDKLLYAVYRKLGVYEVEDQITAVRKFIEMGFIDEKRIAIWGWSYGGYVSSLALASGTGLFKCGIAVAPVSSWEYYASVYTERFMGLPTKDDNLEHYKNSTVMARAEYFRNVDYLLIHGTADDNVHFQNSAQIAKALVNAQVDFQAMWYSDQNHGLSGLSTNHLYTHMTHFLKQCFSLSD

Row | pKD Category [pKD] | Binder
1 | > 8 | B1
2 | > 8 | B2
3 | > 8 | B3
4 | > 8 | B4
5 | > 8 | B5
6 | > 8 | B6
7 | > 8 | B7
8 | > 8 | B8
9 | > 8 | B9
10 | > 8 | B10
11 | > 8 | B11
12 | > 8 | B12
13 | > 8 | B13
